Tests used:
Type in all cases: cell-based
G. vaginalis (Gv 14) = experiment: Growth inhibition of G. vaginalis by LF, spectrophotometric, 20 h anaerobic; conditions: LF in various concentrations, no lactate, 0.34% BHI
Procedure: The bacteria were incubated in 0.34% BHI under anaerobic conditions for 20 hours.
G. vaginalis and P. bivia were cultured on chocolate-GL-plates for 48 h in anaerobic milieu. The bacteria were harvested and suspended in BHI for further incubation (4 hours at 37° C.). The bacteria were washed twice in Bactopeptone (BP, 0.2%). The concentration was adjusted spectrophotometrically and diluted to 1×10^7 bacteria per ml.
The procedure for the microbicidal assay with regard to G. vaginalis and P. bivia was as described above except that the microplate was incubated under anaerobic conditions (2 h). Thereafter droplets of the solutions were analyzed for viable bacteria on blood agar plates after 48 h of anaerobic incubation at 37° C.
The microbicidal assay was modified in order to obtain survival conditions for G. vaginalis and P. bivia. Instead of 0.2% BP 0.34% BHI was used. The bacterial strains were analyzed with only LF added in various concentrations to the wells (no lactate present). The plate was incubated for 20 hours.

[1] = test system: S. aureus 1800 (CCUG 1800); experiment: Microbicidal microplate-droplet assay, S. aureus; parameters: key to S. aureus killing, growth grade in droplet assay: +++ = the number of colony forming units contained within 5 ul of a droplet formed a smooth layer of bacteria.; (+++): (parenthesis = a tendency towards a ruffled area compared with the control).; 0 = no bacteria in triplicate samples of 5 ul (>99.95 killed of the inoculum)
Procedure: (§1) The bacterial strains S. aureus 1800 (CCUG 1800), E. coli 06, and the yeast C. albicans (ATCC 64549) have been used in the microplate assay. All microorganisms were cultured in brain heart infusion medium (BHI) on a shaker over night at 37° C. A volume of the culture was transferred to a new tube with BHI and incubated for two more h on the shaker. The bacteria were harvested in the log phase, washed once and thereafter suspended in the broth used for the microplate assay. The suspension was adjusted spectrophotometrically and diluted to a concentration of approximately 4×10^6 cells per ml at 650 nm. Washed cells were suspended in 0.2% BP (pH 7.0) or BHI medium diluted 1/10 (0.34%, pH 6.7-6.9) (Difco, USA). The concentration of bacterial or fungal cells was spectrophotometrically adjusted. LF or peptide, serially diluted in BHIdil or BP by twofold steps (unless otherwise stated), were added in triplicate to the wells of a microtiterplate (200 ul per well). The bacterial or yeast cell solutions were added in 10 ul volumes to give a final concentration of approximately 2×10^5 cells per ml. The concentration of the stock solution was always checked by viable counts. The microplate was incubated at 37° C. in a humid chamber for 2 h unless otherwise stated. Five ul were taken from each well and added as a drop onto a blood agar plate and incubated over night at 37° C. In some experiments more thorough viable counts were performed and the killing was expressed as remaining colony forming units in relation to the inoculum. The lower limit for detection of microorganisms was 200 CFU/ml. The antimicrobial activity of human LF was analysed by the microbicidal assay described above. Different microbes such as C. albicans, E. coli and S. aureus were analysed with respect to their survival in lactate (not containing the inert gel base, which makes the gel unsuitable for the microbicidal assay) containing LF.

C. albicans (ATCC 64549) = experiment: Microbicidal microplate assay (viable counts), C. albicans
Procedure: as §1, with “LF. […] LF was incubated together with various concentrations of lactate diluted in 0.2% bactopeptone and C. albicans for 2 h. Thereafter each solution was analysed for viable counts.” for “LF.”

[2] = without lactate, 0.25 and 0.125 mg/ml, 2 h of incubation

B1: LF: LF from human milk purchased from Sigma; single chain iron-binding glycoprotein (protein, UniProt P02788 20-710, looked up)
Lactotransferrin: GRRRSVQWCAVSQPEATKCFQWQRNMRKVRGPPVSCIKRDSPIQCIQAIAENRADAVTLDGGFIYEAGLAPYKLRPVAAEVYGTERQPRTHYYAVAVVKKGGSFQLNELQGLKSCHTGLRRTAGWNVPIGTLRPFLNWTGPPEPIEAAVARFFSASCVPGADKGQFPNLCRLCAGTGENKCAFSSQEPYFSYSGAFKCLRDGAGDVAFIRESTVFEDLSDEAERDEYELLCPDNTRKPVDKFKDCHLARVPSHAVVARSVNGKEDAIWNLLRQAQEKFGKDKSPKFQLFGSPSGQKDLLFKDSAIGFSRVPPRIDSGLYLGSGYFTAIQNLRKSEEEVAARRARVVWCAVGEQELRKCNQWSGLSEGSVTCSSASTTEDCIALVLKGEADAMSLDGGYVYTAGKCGLVPVLAENYKSQQSSDPDPNCVDRPVEGYLAVAVVRRSDTSLTWNSVKGKKSCHTAVDRTAGWNIPMGLLFNQTGSCKFDEYFSQSCAPGSDPRSNLCALCIGDEQGENKCVPNSNERYYGYTGAFRCLAENAGDVAFVKDVTVLQNTDGNNNEAWAKDLKLADFALLCLDGKRKPVTEARSCHLAMAPNHAVVSRMDKVERLKQVLLHQQAKFGRNGSDCPDKFCLFQSETKNLLFNDNTECLARLHGKTTYEKYLGPQYVAGITNLKKCSTSPLLEACEFLRK
- growth inhibition of G. vaginalis (G. vaginalis (Gv 14)): Growth inhibition
- S. aureus killing, percentage of bacteria remaining in relation to the inoculum ([1]; HLF 500 ug/ml, lactate 0.2%, 2 h incubation): 0 (0 = no bacteria in triplicate samples of 5 ul (>99.95 killed of the inoculum).)
- S. aureus killing, percentage of bacteria remaining in relation to the inoculum ([1]; HLF 500 ug/ml, lactate 0.2%, 5 h incubation): 0 (0 = no bacteria in triplicate samples of 5 ul (>99.95 killed of the inoculum).)
- S. aureus killing, percentage of bacteria remaining in relation to the inoculum ([1]; HLF 500 ug/ml, lactate 1%, 2 h incubation): 0 (0 = no bacteria in triplicate samples of 5 ul (>99.95 killed of the inoculum).)
- S. aureus killing, percentage of bacteria remaining in relation to the inoculum ([1]; HLF 500 ug/ml, lactate 1%, 5 h incubation): 0 (0 = no bacteria in triplicate samples of 5 ul (>99.95 killed of the inoculum).)
- S. aureus killing, percentage of bacteria remaining in relation to the inoculum ([1]; HLF 500 ug/ml, lactate 5%, 2 h incubation): 0 (0 = no bacteria in triplicate samples of 5 ul (>99.95 killed of the inoculum).)
- S. aureus killing, percentage of bacteria remaining in relation to the inoculum ([1]; HLF 500 ug/ml, lactate 5%, 5 h incubation): 0 (0 = no bacteria in triplicate samples of 5 ul (>99.95 killed of the inoculum).)
- S. aureus killing, growth grade in droplet assay ([1]; HLF 500 ug/ml, no lactal, 2 h incubation): (+++)
- S. aureus killing, percentage of bacteria remaining in relation to the inoculum ([1]; HLF 500 ug/ml, no lactal, 5 h incubation): 0.3%
- microbicidal activity against S. aureus, LF compared with rHLF [1, 2]: somewhat more active
- inoculate killed (C. albicans (ATCC 64549); LF 2 mg/ml in lactate 1%, 2 h): 92%
- inoculate killed (C. albicans (ATCC 64549); LF 5 mg/ml in lactate 1%, 2 h): 98.2%
- reduction of yeast cells (C. albicans (ATCC 64549); LF in lactate concentrations 0.2%, 0.04% and 0%, 0.2% bactopeptone, 2 h): 99.9%
- effect of LF on antimicrobial effect of lactate against C. albicans (C. albicans (ATCC 64549); lactate diluted fivefold or more (≦1%), all LF concentrations except 0.5 mg at 1% lactate): enhanced the antimicrobial effect of lactate
- microbicidal activity against C. albicans, LF compared with rHLF (C. albicans (ATCC 64549); [2]): somewhat more active

Source: patent publication US20080161234A1, “Composition Comprising Lactic Acid and Lactoferrin” (priority 2004, published 2008)
